Assays:
psd10_human PSMD10 [1] = target: psd10_human PSMD10 (UniProt O75832)
psd10_human PSMD10 [2] = target: psd10_human PSMD10 (UniProt O75832); remark: listed apart in the source

Sequence of psd10_human PSMD10 (O75832 whole entry): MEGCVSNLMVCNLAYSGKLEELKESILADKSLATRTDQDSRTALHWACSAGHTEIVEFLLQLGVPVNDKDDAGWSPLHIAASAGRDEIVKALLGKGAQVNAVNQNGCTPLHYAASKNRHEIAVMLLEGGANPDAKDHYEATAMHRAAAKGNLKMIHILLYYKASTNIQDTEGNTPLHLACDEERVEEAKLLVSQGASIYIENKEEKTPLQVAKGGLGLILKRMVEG
Sequence of Cytoplasmic protein NCK2 (Homo sapiens), O43639 E167A;E168A;D170A (O43639 whole entry E167A/E168A/D170A): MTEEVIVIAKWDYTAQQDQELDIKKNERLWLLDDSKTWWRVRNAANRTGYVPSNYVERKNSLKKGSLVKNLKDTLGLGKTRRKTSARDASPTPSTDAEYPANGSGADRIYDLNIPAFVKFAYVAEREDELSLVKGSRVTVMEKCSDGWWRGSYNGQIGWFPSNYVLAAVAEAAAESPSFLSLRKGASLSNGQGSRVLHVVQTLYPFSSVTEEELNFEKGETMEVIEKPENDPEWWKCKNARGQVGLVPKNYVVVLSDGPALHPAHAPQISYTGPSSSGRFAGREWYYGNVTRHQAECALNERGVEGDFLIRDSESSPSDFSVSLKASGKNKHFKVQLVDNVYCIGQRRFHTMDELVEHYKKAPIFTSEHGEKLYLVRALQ

Substance | effect of a mutation on the interaction (psd10_human PSMD10 [1]) | effect of a mutation on the interaction (psd10_human PSMD10 [2])
Chloride intracellular channel protein 1 (Homo sapiens) (from UniProt O00299) E150A;E151A;D153A | disrupting interaction strength | 
Chloride intracellular channel protein 1 (Homo sapiens) (from UniProt O00299) V152E | with no effect | 
Cytoplasmic protein NCK2 (Homo sapiens), O43639 E167A;E168A;D170A |  | disrupting interaction strength

Reference: IntAct's records for PubMed 24338975
